Literature values as cited in paper PMC8969216.

Molecular target: SLAMF1 (Homo sapiens) (UniProt Q13291)

In the case of SLAMF1 (from UniProt Q13291), the Kd is listed as 200 µM.
